Entries after “also recorded” stand apart in the source; their conditions may differ.

In assay [1] the test system is fLfs isolated from IPF lungs (hfLfs). As to the kind of experiment: Pro-fibrogenic marker expression in fLfs in vitro (immunoblot and mRNA). Type of assay: cell-based, human. As to conditions: 2 μg/ml, 48 h, immunoblot. The procedure:
FIGS. 3A-3B. Antibodies specific for M9 inhibited pro-fibrogenic markers expression in fLfs in vitro. hfLfs were serum starved and treated with PBS or 2 μg/ml M9 antibody (M9Ab), or 2 μg/ml M9Ab plus 20 μM CSP7 for 48 hours (FIG. 3A). After treatment, cells were harvested and cell lysates were immunoblotted for pro-fibrogenic markers and M9, and 3-actin was used as loading control.
FIG. 4. […]
FIGS. 7A-7M. […] Lung volumes (FIG. 7B) were measured by quantitative-CT renditions, and lung compliance (FIG. 7C) and elastance (FIG. 7D) were measured using a flexiVent system. […] Statistical significance (*P<0.05, **P<0.01, ***P<0.001 and ****P<0.0001) was assessed by one-way ANOVA with Turkey's multiple comparison.
FIGS. 9A-9O. […] FIG. 9B: Lung volumes were measured by quantitative-CT renditions. Lung compliance (FIG. 9C) and elastance (FIG. 9D) were measured using a flexiVent system. […] Statistical significance (*P<0.05, **P<0.01, ***P<0.001 and ****P<0.0001) was assessed by one-way ANOVA with Turkey's multiple comparison. fLfs isolated from IPF lungs treated with PBS or recombinant full length M9 (rM9^FL) protein (2 μg/ml) for 48 h in vitro were tested for pro-fibrogenic proteins (FIG. 9L). fLfs (from IPF lungs) treated with PBS or extracellular domain of rM9^FL protein (rM9^ECD) as in FIG. 9L were tested for pro-fibrogenic proteins (FIG. 9N). […]

Assay [2] deals with BLM-induced pulmonary fibrosis. As to the kind of experiment: BLM-induced established pulmonary fibrosis in mice, treatment d14-d21. Type of assay: in vivo. The procedure:
FIGS. 9A-9O. M9 peptide and protein mitigated BLM-induced pulmonary fibrosis. Mice exposed to saline or 1.0 U/kg BLM by intratracheal instillation were treated with or without M9 peptide HGHVDPVKTPKI (SEQ ID NO: 4) (10 mg/kg/d) and M9 protein (SEQ ID NO: 1) 7.5 mg/kg/d) via IP injection daily for 7 days starting d14 after BLM injury. FIG. 9A: Representative micro-CT images at d21 after BLM exposure. FIG. 9B: Lung volumes were measured by quantitative-CT renditions. Lung compliance (FIG. 9C) and elastance (FIG. 9D) were measured using a flexiVent system. Lung weights (FIG. 9E) and body weights (FIG. 9F) are presented as bar graphs. Lung homogenates were tested for hydroxyproline (FIG. 9G), soluble collagen (FIG. 9H), pro-fibrogenic marker proteins (FIG. 9I) and mRNAs (FIG. 9J). Bars indicate mean±SD. Statistical significance (*P<0.05, **P<0.01, ***P<0.001 and ****P<0.0001) was assessed by one-way ANOVA with Turkey's multiple comparison. fLfs isolated from IPF lungs treated with PBS or recombinant full length M9 (rM9^FL) protein (2 μg/ml) for 48 h in vitro were tested for pro-fibrogenic proteins (FIG. 9L). fLfs (from IPF lungs) treated with PBS or extracellular domain of rM9^FL protein (rM9^ECD) as in FIG. 9L were tested for pro-fibrogenic proteins (FIG. 9N). The survival the mice treated with rM9^FL is shown FIG. 9M.
FIGS. 10A-10K. UNC5A (“U5”) peptide/protein mitigated BLM-induced pulmonary fibrosis. Mice exposed to saline or 1.0 U/kg BLM by intratracheal instillation were treated with or without U5 peptide (50 residues, SEQ ID NO: 7) (10 mg/kg/d) and full length U5 protein (SEQ ID NO: 5) (7.5 mg/kg/d) via IP injection daily for 7 days starting d14 after BLM injury. FIG. 10A: Representative micro-CT images at d21 after BLM exposure. FIG. 10B: Lung volumes were measured by quantitative-CT renditions. Lung compliance (FIG. 10C) and elastance (FIG. 10D) were measured using a flexiVent system. Lung weights (FIG. 10E) and body weights (FIG. 10F) are presented as bar graphs. Lung homogenates were tested for hydroxyproline (FIG. 10G), soluble collagen (FIG. 10H), pro-fibrogenic marker proteins (FIG. 10I) and mRNAs (FIG. 10J). Bars indicate mean±SD. Statistical significance (*P<0.05, **P<0.01, ***P<0.001 and ****P<0.0001) was assessed by one-way ANOVA with Turkey's multiple comparison.
FIGS. 11A-11K. ALG5 (“A5”) protein mitigated BLM-induced pulmonary fibrosis. Mice exposed to saline or 1.0 U/kg BLM by intratracheal instillation were treated with or without A5 protein (SEQ ID NO: 9) (7.5 mg/kg/d) via IP injection daily for 7 days starting d14 after BLM injury. FIG. 11A: Representative micro-CT images at d21 after BLM exposure. FIG. 11B: Lung volumes were measured by quantitative-CT renditions. Lung compliance (FIG. 11C) and elastance (FIG. 11D) were measured using a flexiVent system. Lung weights (FIG. 11E) and body weights (FIG. 11F) are presented as bar graphs. Lung homogenates were tested for hydroxyproline (FIG. 11G), soluble collagen (FIG. 11H), pro-fibrogenic marker proteins (FIG. 11I) and mRNAs (FIG. 11J). Bars indicate mean±SD. *P<0.05, **P<0.01, ***P<0.001 and ****P<0.0001 were obtained by one-way ANOVA with Turkey's multiple comparison.
FIGS. 12A-12E. WT mice with BLM-PF were treated with or without rM9^ECD (1.5 mg/kg) via intratracheal (IT) instillation daily for 7 d starting d 14 after BLM. Survival (FIG. 12A), body weights (FIG. 12B), lung volumes (FIG. 12C) and lung weights (FIG. 12D) were measured on d 21 post-BLM. Lung homogenates were tested for soluble collagen (FIG. 12E).
FIGS. 13A-13B. FIG. 13A: fLfs (IPF) treated with PBS or M9^mAb (2 μg/ml) or control IgG, tested for pro-fibrogenic proteins (i) and mRNAs (ii). FIG. 13B: WT mice with BLM-PF were left untreated, or intraperitoneal (IP) injected with control IgG or M9^mAb (2.5 mg/kg) daily for 7 d starting 14 d after IT BLM. Body weights (i) and total lung hydroxyproline (ii), and soluble collagen (iii) were measured. […]

The mark [3] stands for this setting: protein 7.5 mg/kg/d IP, 7 days starting d14 after BLM.
[4] abbreviates: protein 7.5 mg/kg/d IP, 7 days starting d14 after BLM, flexiVent, d21.

B1: M9 protein: recombinant full length human MEGF9 protein (SEQ ID NO: 1) (protein, listed as Homo sapiens)
chain: MNGGAERAMRSLPSLGGLALLCCAAAAAAAAVASAASAGNVTGGGGAAGQVDASPGPGLRGEPSHPFPRATAPTAQAPRTGPPRATVHRPLAATSPAQSPETTPLWATAGPSSTTFQAPLGPSPTTPPAAERTSTTSQAPTRPAPTTLSTTTGPAPTTPVATTVPAPTTPRTPTPDLPSSSNSSVLPTPPATEAPSSPPPEYVCNCSVVGSLNVNRCNQTTGQCECRPGYQGLHCETCKEGFYLNYTSGLCQPCDCSPHGALSIPCNSSGKCQCKVGVIGSICDRCQDGYYGFSKNGCLPCQCNNRSASCDALTGACLNCQENSKGNHCEECKEGFYQSPDATKECLRCPCSAVTSTGSCSIKSSELEPECDQCKDGYIGPNCNKCENGYYNFDSICRKCQCHGHVDPVKTPKICKPESGECINCLHNTTGFWCENCLEGYVHDLEGNCIKKEVILPTPEGSTILVSNASLTTSVPTPVINSTFTPTTLQTIFSVSTSENSTSALADVSWTQFNIIILTVIIIVVVLLMGFVGAVYMYREYQNRKLNAPFWTIELKEDNISFSSYHDSIPNADVSGLLEDDGNEVAPNGQLTLTTPIHNYKA
With B1, the “pro-fibrogenic marker proteins (Col1, FN, TN-C and α-SMA) in fLfs” value in assay [1] is listed as “reduced”. Besides, the survival rate result in assay [2] (mice with BLM-induced existing PF, full length protein 7.5 mg/kg/d IP) is reported as “significantly increased”. Also, the “BLM-induced pulmonary fibrosis (overall)” value in assay [2] (mice, 1.0 U/kg BLM IT, protein 7.5 mg/kg/d IP daily for 7 days starting d14, d21) was “resolved; also recorded: mitigated”. In addition, in assay [2] (setting [3]), the “BLM-induced fibrogenic marker proteins (Col1, FN, TN-C, α-SMA) in whole lung homogenates” value is reported as “marked inhibition”; the body weight entry was “improvement”; the “collagen and other extracellular matrix deposits (Trichrome staining of lung sections)” value was “remarkable reduction”; the “fibrogenic marker transcripts in whole lung homogenates” value is reported as “marked inhibition”. In addition, the lung weight result in assay [2] (setting [3]) was “reduction”. Also, in assay [2] (setting [4]), the lung compliance result is listed as “improved” and the lung elastance result is on record as “improved”. Further, the “whole lung total hydroxyproline” value in assay [2] (protein 7.5 mg/kg/d IP, 7 days starting d14 after BLM, lung homogenates) is “significant inhibition”. Further, the lung volume entry in assay [2] (protein 7.5 mg/kg/d IP, 7 days starting d14 after BLM, quantitative CT, d21) is on record as “improved”.

B2: rM9^ECD: recombinant extracellular domain of human MEGF9 (SEQ ID NO: 102) (protein, listed as Homo sapiens)
chain: MGWSCIILFLVATATGVHSAAVASAASAGNVTGGGGAAGQVDASPGPGLRGEPSHPFPRATAPTAQAPRTGPPRATVHRPLAATSPAQSPETTPLWATAGPSSTTFQAPLGPSPTTPPAAERTSTTSQAPTRPAPTTLSTTTGPAPTTPVATTVPAPTTPRTPTPDLPSSSNSSVLPTPPATEAPSSPPPGHQWPVAKMPQKYLGKYACESNLKSKYLPLTQPVMNLRVSEAVKTEYVCNCSVVGSLNVNRCNQTTGQCECRPGYQGLHCETCKEGFYLNYTSGLCQPCDCSPHGALSIPCNSSGKCQCKVGVIGSICDRCQDGYYGFSKNGCLPCQCNNRSASCDALTGACLNCQENSKGNHCEECKEGFYQSPDATKECLRCPCSAVTSTGSCSIKSSELEPECDQCKDGYIGPNCNKCENGYYNFDSICRKCQCHGHVDPVKTPKICKPESGECINCLHNTTGFWCENCLEGYVHDLEGNCIKKEVILPTPEGSTILVSNASLTTSVPTPVINSTFTPTTLQTIFSVSTSENSTSALADVSWTQFN
B2: the “pro-fibrogenic marker proteins (Col1, FN, TN-C and α-SMA) in fLfs” value in assay [1] is listed as “reduced”. Further, in assay [2] (1.5 mg/kg intratracheal (IT) instillation daily for 7 d starting d 14 after BLM), the lung function entry is recorded as “improved”. The “existing BLM-induced PF (overall)” value in assay [2] (WT mice with BLM-PF, 1.5 mg/kg intratracheal (IT) instillation daily for 7 d starting d 14, d 21, 1.5 mg/kg) is given as “resolved; also recorded: resolution”. Moreover, the survival rate entry in assay [2] (mice with BLM-induced existing PF treated with extracellular domain protein, dose not printed (FIG. 9)) is “significantly increased”.

Values taken from US12173061B2, “Compositions and methods for treatment of chronic lung diseases” (Board of Regents, The University of Texas System, priority 2021, dated 2024).
